From the supplement of paper PMC12636428

Test system: Saccharomyces cerevisiae
Experiment: transcriptional activation domain activity (GFP:mCherry ratio, weighted mean of sorted bins, harmonized to initial dataset scale) (arbitrary fluorescence ratio units); higher = stronger transcriptional activation
Details: beta-estradiol 1 µM; induction time 4 h
How it was run: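 Barcoded tiles were sequenced after cells were sorted into 8 bins by GFP:mCherry ratio. Before sorting, cultures had been diluted 1:5 into SC with 1 uM beta-estradiol and held for 4 hours at 30 °C. The tiles were fused to an estradiol-inducible synthetic transcription factor and integrated at URA3 in yeast diploids carrying a GFP reporter. Activation activity is the read-weighted mean of bin median fluorescence, averaged over barcodes and linearly mapped onto the initial dataset scale, and tiles under 50 reads were left out.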

Sequence	transcriptional activation domain activity
KRVKKEETVEKKPAVETEAPKKRGRKAAVSASAEEPKAAPAKRSRRKVSATAA	13300
FLRLFCFAFIMLVGILPTQAYVVYADVKLSMPWHAYSWSNMHGPSWHTVNMVP	51400
IPSSQSRDIANDYDRGSTDNNLVTTTSTSSIFHDEDLTFFDRIPLNSNNNYYF	102000
YYVILLSIKLFGINSSLWALLITLTNWFNLYLSCRLIPNNIEGILTIIALYYW	66500
MISFFNWQVWGGFCGLLFIFFLFDFFLLEFGSTYHLLEDGLNLFLFWYFYDYD	43600
PLVRWMLDYVINHGEIVHSHPSIRTLATSLIDHPYFLSFICSSFFIEPRGLSG	34800
MCIICVLYVYYMYICFVCVHCICFYIFVHRFCLSVCMFFFFFFFFVCFINIIL	69900
YLTRHVRLFGKLFRRMQQLHATRFVTLPLSSDLILYYWSKVVQASTALPEFIA	51600
MAAGFFFFFFLLSFPLFLSFFFCFPFFFSLPSGISFCLPFAPGVVSSFPFPTR	53800
QLQCIPIFGNFVVLILCLKYIYSCNHFGSVTSHHTFHMLAVVLSTFFISLIPV	43100
EAGAEEAAAGAGGRQEAASVEEAAREAARRRQQAEAGRGRRRRQPAGAEEAAE	33300
YINAMLGLPRSISPDDFDQTLPLDLSDENITEVAYLPENQHSVLSSTGISNEH	58400
VRQQLKIRLIKLFRRFYPYVNFAYYASGLVYNVLYLFNKTKYYSPWLHLIGVQ	52200
TLRVSNLLCWFLLCLTSVPGLGIVYYTYFLLPDTPYCLWALCLYTKSFIAPLM	63000
YYYFNYFYFYYFYYYFIIIIIILFYLILFLFLFLLLLLFIYFYFYFNYFYYLF	69700
MGLWARFICFVIPLFFHYFPLFSFSFLLNIFPHYIYFFPTFYKSGPLFLCFFM	50500
NPIIRVRGIGLSLTSICFLHCYWILAQVVYPIGQSLPVILAYDIQYFFMGLWF	56900
YFEIAGLTFFFYWYFYLLVGGIDCAWNKFVYVMVSHMSTMIVHVQITLSHFAM	32700
TKGEFHKIAVIFTSTVVAGMVIMYFWILKQIPFMVGLVVWGWVGISQGFFAVN	55800
NLHNASTSSFNNEAFWKPLDSAIDHHSGDTNPNSNMNTTPNGNLSLDWLNLNL	84600
ILLIVRFIWRSPYLISTGCGSLINDFSYVNIFLYSKIFCERFFIFLSLVIFIK	66800

Sequence	transcriptional activation domain activity
MAEEQPAKPKKHRAAKPKVSTGCVTCKQRRIKCGEEKPHCMRCVKTGRECGGY	41800
AFLLFLIYLTFFCWVCFATSATWVWSEILSDNQYTESFMPINDVLLAVLSGII	38700
LRLVIENIQKYGNLVCLTCHDFRRKDLLLGVGLYFLIPCFLWVALSIELVAAR	63600
SLISFRLLGEVATGIKYLVCYDMPNMSRIEVELAKRLYCLILCGLCTWSIYGR	79500
HKLKHVLAEHGARMSIHLGRRQVTHVILGRPAGGGGGAGGGLAGGKLQKEIQK	42500
VLMDERISLKNDLSSQDVALFLSLASSVASGSLLLRPPNVWIVVWTYLHRRHG	66900
RLAELCLLIDPRLLVKLAGVMARYIESMATYRAHPRQIYNRQCSVFNTSLKLF	62200
QVKAKTARKSSRAATKKSSAKRRRDESSEESSDEDESGGERVSRGRGGAVRDK	36000
MLHLPLFLLYFFFFSLLLYFSFFPSSFFFFLLSPPFPLLIFSLFLSFLLLFPP	40200
TAPSATSAAALVTSPATALRVAMVVSRAAAPAAATTVPARARPATPAVVSATC	51300
VLRWGDTNTLPFVHIMMVFIHKMAQYAAAMSYLEQVFPWKLTMVMLNYHLTSC	68500
MGLLVIMEVVFCVINLDALFFFLLSLLLLFLTFFSFFRIMMEFIVFLHVSFYF	61400
NQAQPSTSGGFGQPSAFGSATPSSSAFGGGAASTPTQPSAFGASTTPAAAPTA	8250
RNLGKLCSLHIEIRDPDLHRWNLVTLILVVHTLKSPFLERVCISFATYANIYG	42300
GVNAIGRRSSFQDVEAGKGGLIVPLRHLPPRGEDAGLVLQVHLNRAVSKLARM	65200
ARGTTTPPPAPSTGSPSAPAAASRSSTGRSSATASCRTARCARASGRSAPGAG	42900
MRQVHIVFSGRDSGRESDIEVVSETSVFHDAAFVLGCVLVRGRSFAAPLLTAL	32700
MEVRQRKPGSGRPKGSKNKAKPPGTEPRPRKPGSGRPKGSKNKTTLAAAAAAA	30900
MFIFFKILILILLINIISITSFRLGAMLHYCIGHWDCMGNYLDCVFRLGFLFI	59000
ATIAPPQLELVTDPQLSMDSFLEMIRVFTVPGKCFFDALAADSTDASCTEESL	95400
RCFSFLFLGCHYDTDWGFGFCCLFVINCRFNFCIFFLSLFSSFFVLVSFFLLY	58800

Sequence	transcriptional activation domain activity
WLPNWLVPVMTAFSWMTWIAPKHRDLNILTGFNNGMGLLNFWPTWDWNVLLFT	54200
AESQSSRATHTRKRAKQACRQCNARRVRCNVAESQPCANCRSSGSACELLPSK	26200
MSFFCLFHQLFDISCIFIYLILLENHFSLLCYLLLIFNFNCYFVIFSFLVLNF	54800
LLSEESLRTMGLRTVKDILLRCASERAILTLVDFPLRVLVMVAQIRTGLWVRN	36800
EGDDEAPVQPKGRPRKSKAAAAESADEEPRPKAVRSRPSRARKSKPVASDSDV	< 6570
TRYCWGFINLWYSSLYLSGSIILNLAAFFLLPVHLFVSLMQTHLLQWELLLAF	59500
AKRGRASSNASSVQGSTGAASGSSRNKRGGAAEERAGSTSADLANKTADQRKR	22900
VIEGNTSPAVGIEMCHVMLCSLVKELYQRVAASGMTFVLSVSVECLLSQTLQT	31800
DDGESKEKRSRREKSAASEDESRKRSKSRSKSKSKTPSGNDESSNEDTSAGAD	18600
DLHLICNMVNGSTTFHSGESWTPVCLPRFNSKGFLHAYVCFVAKETCLVLISP	30300
QYYPGQLLSVKLDLFNTMLARVLDLSHMEILHFIVGPRVNIVGRGYPLRMGVV	34100
MFLLVLYPILHLLFLPCKYQYFQIFIRLLSQLPLLFFFCNTFWFFSTSVFFLN	69600
ANRIAIRLFHFLLECPDEMTRLVAIKKYIKNTYMIPTYLVTVNCILRLAGYWK	55900
MDFFYIFNYLISYITNRLMILLYYFTHTHFLLFPLSLFYYYFSCSCFFLLFPP	36500
NNPDAKKARACESCRQLKVKCEPDADNPDGPCRRCAKAGRACVVTQPTRKRQK	38000
YICQYHGSLIGKHFKSLMQVMPFLIYDLVAQDILCAWNIIGVLVVLLWHTEIE	81900
LVLKMILDRLAEPGDSLLNIDFSTLIHQFAKYLNKVPSNYVVLRIKIKICHLV	61000
ERGKRKEGRKEEEGKEGEKGKEEKREEKRRGKRGEEKREGKKKEERRRGRRRR	20800
KLYQLKLKIFLYWQRYSYLYAKRKHSTKHHTLLVWSLKVKKLYGILWCFLLLF	36600
VKHTYLMVTILLLFIFITMCCIMDNVRCIVALNNPGLDLGPPNSVIGILINAC	18100
MYIQYNILLTFPFLFLHFLFLFFFFFFFFLLFFFFLSRSPLTPSLAPPSPLLT	65300

Sequence	transcriptional activation domain activity
SVCNDGNAGDFLYDCFGEFNNQPFNWDVLSPRVAANPYYSFDDFGSSLFILFQ	106000
DSRRKRNTSSEEDEPKKTDREERRREYRSRDHNVADEERSNKHRSSRRKHRSA	7300
LECVRFAIMTHTVDLLQKVLWSQVDHILSRLPSIRTVKFRFFMDSSLWKKAAI	41900
RFNLPICGEIKMYRGWTVIDLVHMVCINTACKISNLKHALRKLSISFTNLVKP	54700
SRLRKTGTPTSSQHSSTAFSGYIDDPFNLNEILPLPASDFKLNTVTNLNEIDF	106000
EQFVLRDCGLLLWIDLRFLCHCARICLSACLDNYVYGVANITGKLVRFWGLGV	63400
MVSILLFFLSSAFLLTYPYPLLNLALYLLLMFIFSTLYSLTYLLLGFFFFFLA	58600
PESINYVLEQGSLLSRFTYRFVIFICKLARINQPTYRLLIRFGLLDMILRICV	87400
DEEQDRSHRHRRSRSASPRRHKSGNEARERDRHGDDHSRRHRRRRSHERSHRH	48700
QRNPGSRAVIVKPILHVYLEGAPGSLTTRNDSVVGLLVVQLSISLANALAMKA	22900
MAKTRLIETIHTAFCIEFIYQYLIIGYGNPLVLAQIHWSVVCLLACTLLIVFL	55500
EGSERESKGSEREGEGSEREGKRNEREGKRGERGGERVGERGSEKVGERGSEK	22700
MVPLRSFPILYALCKVLLFITILLLLIVFVCLGLQHCLLFVGCWLCVQIWCGG	23300
IHVESRLPEMRATLEPKRYVHVARFFSHLIIYFRLLHRPLPASTCNSMLRHYV	47400
LLIQPLIQGFCYLMQFWISFFSSLFCFVTGDIPILLGILIPFYCLFFFHFFLF	58700
MLLLFVYPCSPLSHCSSFYSYYLIIKLLLFYDIKNLSFFFFLEYFDLWWLITI	78500
SAHWILKAYYTDRRVLFGFCFGNEAFFMLIYLMEYLDGFCFYFVSFLALLAFP	57200
TRVQDEWVSITKLARQAKESAGKEKKGKGGRGVYSQNSKVWEGVVKLLVAIVA	46300
NCVGHFTYGHFLRFLFYVDVACAYHLSMITWRVFHAMHASYWASPFTEMIFII	65500
GSIDITRLGLSFTIIGDLWRQVWWAMLGRDEFASLRKNVSYSRQSLQNLLVTM	61800
